# Source: patent US8110551B2 (priority 2008, dated 2012)
# Read-outs that look alike come from different tables or passages of the source.
# B1: CdtB: Active B subunit of cytolethal distending toxin, SEQ ID NO: 3, expressed from pGEMCdtB (protein)
# chain: NLSDFKVATWNLQGSSAVNESKWNINVRQLLSGEQGADILMVQEAGSLPSSAVRTSRVIQHGGTPIEEYTWNLGTRSRPNMVYIYYSRLDVGANRVNLAIVSRRQADEAFIVHSDSSVLQSRPAVGIRIGTDVFFTVHALATGGSDAVSLIRNIFTTFTSSPSSPERRGYSWMVVGDFNRAPVNLEAALRQEPAVSENTIIIAPTEPTHRSGNILDYAILHDAHLPRREQARERIGASLMLNQLRSQITSDHFPVSFVRDR
# modifications: Actinobacillus actinomycetemcomitans
# Key:
# CdtB = assay: Effect of phosphatase inhibitors on CdtB-mediated hydrolysis of PI-3,4,5-P3; type: biochemical, A. actinomycetemcomitans; conditions: for reduction of CdtB phosphatase activity: 0.5 μM CdtB, 30 min
# Experimental: CdtB (0.5 μM; triangles) and PTEN (0.1 μM; circles) were incubated with liposomes containing PI-3,4,5-P3 in the presence of varying concentrations of tungstate or orthovanadate for 30 min. Phosphate release was measured using the malachite green binding assay. Results are plotted as phosphate release (nmol/30 min; mean±S.D.) versus inhibitor concentration (mM);
# (§1) Phosphatase activity was assessed by monitoring the dephosphorylation of PI-3,4,5-P3 as described by Maehama et al [Maehama, T., G. Taylor, J. Slama, and J. Dixon. 2000. A sensitive assay for phosphoinositide phosphatases. Analytical Biochemistry 279:248-2501. Briefly, the reaction mixture (20 μl) consisted of 100 mM Tris-HCl (pH 8.0), 10 mM dithiothreitol, 0.5 mM diC16-phosphatidylserine (Avanti), 25 μM PI-3,4,5-P3 (diC16; Echelon) and the indicated amount of CdtB, CdtABC or PTEN (kindly provided by Gregory Taylor). Appropriate amounts of lipid solutions were deposited in 1.5 ml tubes, organic solvent removed, the buffer added and a lipid suspension formed by sonication. For experiments to determine substrate specificity, PI-3,4,5-P3 was replaced by the indicated phosphatidylinositol phosphate (Echelon). Phosphatase assays were carried out at 37° C. for 30 min; the reactions were terminated by the addition of 15 μl of 100 mM N-ethylmaleimide. Inorganic phosphate levels were then measured using a malachite green assay. Malachite green solution (Biomol Green; Biomol) was added to 100 μl of the enzyme reaction mixture and color was developed for 20 min at RT. Absorbance at 650 nm was measured and phosphate release quantified by comparison to inorganic phosphate standards.
# Jurkat cells [1] = type: cell-based, human; conditions: 16 hr
# [2] = TLC analysis of product formation after PI-3,4,5-P3 hydrolysis; type: biochemical; conditions: 0.5 μM CdtB or 0.1 μM PTEN, FIG. 3 inset
# From the text: Analysis of CdtB-Mediated Product Formation
# Inositol lipids were separated by thin layer chromatography. Silica gel G plates were dipped in boric acid (5% in methanol) and then dried. They were then spotted with the lipid samples dissolved in chloroform/methanol/water (1/2/0.1) together with solutions containing the standard inositol lipids phosphatidyl 4,5 bisphosphate, phosphatidyl 3,4 bisphosphate, phosphatidyl 3,5bis phosphate, phosphatidyl 3,4,5 trisphosphate, and phosphatidyl inositol. The plates were eluted with solutions containing propyl acetate/isopropanol/ethanol/ammonia/water (15/45/16/9/35), dried, and sprayed with solution containing CuSO4/H3PO4 (8%/10%), and air dried again. Plates were then heated to 70° C. then to 155° C. to visualize the lipids.
# [3] = Substrate specificity with phosphoinositides in liposomes; type: biochemical; conditions: 0.5 μM CdtB, 0.1 μM PTEN; 30 min; liposomes with phosphatidylserine carrier; FIG. 3
# Experimental: as §1, with “Malachite green solution (Biomol Green; Biomol) was added to 100 μl of the enzyme reaction mixture and color was developed for 20 min at RT.” left out
# CdtB substrate specificity was assessed using several different phosphoinositides (PI). […] In order to determine whether CdtB is a 3- or 5-phosphatase, product formation was assessed using thin layer chromatography. […]
# [4] = type: biochemical
# [5] = Dephosphorylation of inositol phosphates; type: biochemical
# [6] = Protein phosphatase activity with synthetic substrate; type: biochemical; conditions: synthetic substrate pNPP
# Jurkat cells [7] = type: cell-based, human
# supercoiled pUC19 DNA = type: biochemical
# [8] = 30 min, read-out: ED0.5 [concentration required to catalyze 0.5 nmol phosphate release]
molecule,measurement,setting,value
[O]=[W](=[O])([O-])[O-] [tungstate],reduction of CdtB phosphatase activity,CdtB; 1 mM inhibitor,15%
same,reduction of CdtB phosphatase activity,CdtB; 10 mM inhibitor,70%
[O]=[V]([O-])([O-])[O-] [orthovanadate],reduction of CdtB phosphatase activity,CdtB; 1 mM inhibitor,10%
same,reduction of CdtB phosphatase activity,CdtB; 10 mM inhibitor,85%
O=c1cc(N2CCOCC2)oc2c(-c3ccccc3)cccc12 [LY290004],Cdt-induced accumulation of G2 cells after pre-treatment,Jurkat cells [1],22.0%
[O]=[Mo](=[O])([O-])[O-] [molybdate],inhibition of CdtB (in words),CdtB,failed to inhibit
COC[C@H]1OC(=O)c2coc3c2[C@@]1(C)C1=C(C3=O)[C@@H]2CCC(=O)[C@@]2(C)C[C@H]1OC(C)=O [wortmannin],Cdt-induced accumulation of G2 cells after pre-treatment,Jurkat cells [1],35%
"PTEN: Tumor suppressor phosphatase (phosphatase and tensin homolog deleted on chromosome ten), used for comparison [reference compound]","product formed from PI-3,4,5-P3",[2],"PI-(4,5)-P2"
same,substrate specificity (phosphate release with phosphatidylinositol phosphates),[3],"substrate specificity for PI-(3,4,5)-P3 identical to CdtB"
same,Km,[4],159 µM
same,EC50,[4]; [8],50 nM
B1,"product formed from PI-3,4,5-P3",[2],"PI-(3,4)-P2"
same,dephosphorylation of inositol triphosphate or inositol tetrakisphosphate,[5],unable to dephosphorylate
same,substrate specificity (phosphate release with phosphatidylinositol phosphates),[3],"only occurred in the presence of PI-3,4,5-P3"
same,protein phosphatase activity,[6],did not exhibit detectable protein phosphatase activity
same,"toxicity (G2 cell cycle arrest), dose response",Jurkat cells [7],comparable activity
same,percentage of G2 cells,Jurkat cells [7]; 18 hrs,54.8%
same,DNase Activity (% CdtB^wt),supercoiled pUC19 DNA,100 % CdtB^wt
same,DNase activity (in words),supercoiled pUC19 DNA; 2 hrs at 37° C.,detectable nuclease activity although it was less than five orders of magnitude of that observed with bovine DNase I
same,Km,[4],124 µM
same,PIP3 phosphatase activity (% CdtB^wt),[4],100 % CdtB^wt
same,EC50,[4]; [8],500 nM
same,EC50,[4]; read-out: ED0.5,300 nM
